The target in the experiment is T1, 6xHis-tagged full-length Prp5p (S. cerevisiae, UniProt P21372 1-849).
T1 sequence: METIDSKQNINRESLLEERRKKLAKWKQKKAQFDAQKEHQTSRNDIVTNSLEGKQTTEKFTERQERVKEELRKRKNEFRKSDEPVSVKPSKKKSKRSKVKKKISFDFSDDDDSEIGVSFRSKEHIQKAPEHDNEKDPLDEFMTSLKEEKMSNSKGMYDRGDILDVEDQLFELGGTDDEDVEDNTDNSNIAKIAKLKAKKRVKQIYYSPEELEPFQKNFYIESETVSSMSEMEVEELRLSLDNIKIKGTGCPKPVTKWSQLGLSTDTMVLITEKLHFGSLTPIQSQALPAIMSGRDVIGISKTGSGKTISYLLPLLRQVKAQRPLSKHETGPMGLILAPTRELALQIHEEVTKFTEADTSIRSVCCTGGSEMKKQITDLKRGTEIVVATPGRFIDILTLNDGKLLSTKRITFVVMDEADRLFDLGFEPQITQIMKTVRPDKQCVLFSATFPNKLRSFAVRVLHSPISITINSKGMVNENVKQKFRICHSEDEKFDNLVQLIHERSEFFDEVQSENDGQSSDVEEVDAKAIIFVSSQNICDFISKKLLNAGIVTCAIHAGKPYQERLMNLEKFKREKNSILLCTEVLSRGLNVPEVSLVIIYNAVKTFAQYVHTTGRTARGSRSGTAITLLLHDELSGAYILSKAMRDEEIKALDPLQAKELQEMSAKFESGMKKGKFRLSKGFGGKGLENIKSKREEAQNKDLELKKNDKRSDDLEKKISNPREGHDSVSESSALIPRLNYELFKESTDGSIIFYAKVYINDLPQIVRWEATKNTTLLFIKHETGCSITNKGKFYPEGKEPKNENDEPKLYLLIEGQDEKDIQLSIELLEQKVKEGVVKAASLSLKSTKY
The experiment is described as follows: pull-down.

B1: GST-tagged Spt8p (natural protein, S. cerevisiae, UniProt P38915 1-602, looked up)
chain: MDEVDDILINNQVVDDEEDDEEMLSGLENDSKQDLEGNDDGGEDEEDDDDDDEDDDDDEDEREDDDEQEDDDGEDDAARMDKTATPTNEHQHDEQKAAAAGAGGAGDSGDAVTKIGSEDVKLSDVDGGVGSREASSSTHEASANGEVYEYYKHMLNAAQIADSYNIYPTAAIPIQTHVNALAVSRGLKYLFLGGSDGYIRKYDLLNTLEGKLSLTILQKHSLAESIQNAGILQSYWENEIPQKKSEMKLSANKTDYEPKVSPVHSLEVQSECLFILSGLQNGGITMQGVRYMEGSIAHYFKGRNGHTQIVNILRLNGQEDRFLSGSWDKRLLEWDLQTGDIVNEFKKSRSELSSLEMRPLYSSVDVSGNVNSGKENENADDDMDSLFGDEDEDEKQDAGNEPVETGDGSNGEENKEQISEESLNIVYDESVFMTSGLNGSVHIWDRRMTQSPALSLERGAGVPPWCLSACWGVDGDHVYAGRRNACVEQFDLKMPSKPIHNLKLPSISGPVSCVKAMPNNKHLLCASRDNIRLYNVEIAVDASNSTTKSSKVPFLIVPGHHGGIISNLYLDPTSRFIISTSGNRGWQGNSTDTTLIYDIDLE
In the case of B1, the binding result is recorded as “binds”.
